Measurements reported in the nanobody polyreactivity screen of Harvey et al. (2022).

assay: yeast display, Sf9 membrane polyspecificity reagent, FACS + sequencing; frameworks hold sequencing errors
Outline: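 Galactose-induced (36–48 hours) yeast carrying a synthetic nanobody display library were exposed to 10% biotinylated, detergent-solubilized Sf9 membrane reagent at 4 °C for 1 hour. FACS followed streptavidin microbead enrichment, using low and high (top ~1%) gates for expression (anti-HA) and reagent binding (streptavidin). Colony PCR, MiSeq 2 × 250 sequencing and CDR-length filtering followed. Labels for polyreactivity reflect the gate of origin.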

Row | Sequence | polyreactivity (PSR sort gate)
1 | QVQLVESGGGLVEAGGSLRLSCAASGSTFRRYAMGWYRQAPVKERELVAAISTRGGSTYYADSVKGRFTISRDNAKNTVYLQMNSLKPEDTEVYYCAADPYYTLGYYYWGQGTQVTVSS | high polyreactivity
2 | QVQLVESGGGLVQAGGSLRLSCAASGFIFQSYAMGWYRQAPGKERELVASITRSGGSTYYADSVKGRFTISRDNAKNTVYLQMNSLKPEDTAVYYCNTYRNHYGWRKFNYWGQGTQVTVSS | high polyreactivity
3 | QVQLVESGGGLVQAGGSLRLSCAASGFTFALYAMGWYRQAPGKEREVVASIDNGVSTNYADSVKGRFTISRDNAKNTVYLQMNSLKPEDTAVYYCAKGPGYGFYKLLSYDSWGQGTQVTVSS | low polyreactivity
4 | QVQLVESGGGLVQAGGSLRLSCAASGFTFYRYAMGWYRQAPGKESELVAAISGSGGSTYYADSVKGRFTISRDNAKNTVYLQMNSLKPEDTAVYYCNTVWFYGAKYDYWGQGTQVTVSS | high polyreactivity
5 | QVQLVESGGGLVQAGGSLRLSCAASGSIFDYNTMGWYRQAPGKERELVATISWSGDSTYYADSVKGRFTISRDNAKNTVYLQMNSLKPEDTAVYYCAKTAPPERYSAWRYSWGQGTQVTVSS | low polyreactivity
6 | QVQLVESGGGLVQAGGSLRLSCAASGRTFRVYAMGWYRQAPGKERELVAAITRGGSTYYADSVKGRFTISRDNAKNTVYLQMNSLKPEDTAVYYCATYSHALRYDYWGQGTQVTVSS | high polyreactivity
7 | QVQLVESGGGLVQAGGSLRLSCADSGRTFYHYAMGWYRQAPGKERELVATITSSGGNTYYADSVKGRFTISRDNAKNTVYLQINSLKPEDTAVYYCAADWFVYQYSFGSSEYYYWGQGTQVTVSS | low polyreactivity
8 | QVQLVESGGGLVQAGGSLRLSCAASGSIFGGNAMGWYRQAAGKERELVAAITQSGGRTYYADSVKGRFTISRDNAKNTVYLQMNSLKPEDTAVYYCNRVYKSQTTDSFPLSYYYWGQGTQVTVSS | high polyreactivity
9 | QVQLVESGGGLVQAGGSLRLSCAASGSIFAVYAMGWYRQAPGKERELVATISGRGGSTYYADSVKVRFTISRDNAKNTVYLQMNSLKPEDTAVYYCNARVLFRRERMDSWGQGTKVTVSS | high polyreactivity
10 | QVQLVESGGGLVQAGGSLRLSCAASGFIFHRYAMGWYRQAPGKERELVASITRSGGSTYYADSVKGRFTISRDNAKNTVYLQMISLKPEDTAVYYCAAQLPSYYKYPRHDYWGQGTQVTVSS | high polyreactivity
11 | QVQLLESGRGLVQEGGSLRLSCAASGFTFTAYAMGWYRQAPGKERELVAVISVRGGRTRYADSVKGRFTLSRDNAKNTVYLQMNSLKPEDTAVYYCDARYRPYSGSPQYDYWGQGTQVTVSS | high polyreactivity
12 | QVQLVESGGGLVQAGGSLRLSCAASGSTFVAYAMGWYRQAPGKERELVAAISSVGRTNYADSVKGRFTISRDNAKNTVYLQMNSLIPEDTAVYYCNVEPGGITRQEYDYWGQGTQVTVSS | high polyreactivity
13 | QVQLVESGGGLVQAGGSLRLSCAASGSNFNVYVMGWYRQAPGKERELVAAISWGDGSTSYADSVKGRFTISRDHAKNTVYLQMNSLKPEDTAVYYCNRRHSYPYDYWGQGTQVTVSS | high polyreactivity
14 | QVQLVESGGGLVQAGGSLRLSCAASGLIFQVYDMGWYRQAPGKERELVAATSSGSKTNYADSVKGRFTISRDNAKNTVYLQMNSLKPEDTAVYYCAAGGPSTLDDYWGQGTQVTVSS | low polyreactivity
15 | QVQLVESGGGLDQAGGSLRLSCAASGSISAIYTMGWYRQAPGKERELVAAISSGDSTNYADSVKGRFTISRDNAKNTVYLQMNSLKPEDTAVYYCATERSHLATGQGYYYVQTFYYWGQGTEVTVSS | low polyreactivity
16 | QVQLVESGGGLVQAGGSLRLSCAASGFIFYNYAMGWYRQAPGKERELVAAITSRGGSTYYADSVKGRFTISRDNAKNTVYLQMNSLKPEDTAVYYCAAVKVGDARFVRNDYWGQGTQVTVSS | high polyreactivity
17 | QVQLVESGGGLVQAGGSLRLSCAASGIILSPYTMGWYIQAPGKERELVAGISRSGGTTYYADSVKGRFTISRDNAKNTVYLQMNSLKPEDTAVYYCAAGLIYGYSGYDSWGQGTQVTVSS | low polyreactivity
18 | QVQLVESGGGLVQAGGILRLSCAASGITFRRSAKGWYRQAPGKERELVAGISYSGGTTYYADSVKGRFTISRDNAKNTVYLQMNSLKAEDTAVYYCAAKRISYTREGYSQYDDWGQGSQVTVSS | high polyreactivity
19 | QVQLVESGGGLVQAGGSLRLSCAASGITFSVYAMGWYRQAPGKERELVASISSGGTSTYYADSVKGRFTISRDNAKNTVYLQMNSLKPEDTAVYYCAAYSYYTGDQYSYDYWGQGTQVTVSS | low polyreactivity
20 | QVQLVESGGGVVQAGGSLRLSCAASGRIFRYYTMGWYRQAPGKERELVASITGSGTSTYYADSVKGRFTISRDNAKNTVYLQMNSLKPEDNAVYYCNARGFRVASHAAWYQYDYWGQGTQVTVSS | high polyreactivity
21 | QDQLVESGGGLVQAGGSLRLSCAASGSTFDSYDMGWYRQAPGKERELVAAISGGGGTYYADSVKGRFTISRDNAKNTVYLQMNSLKPEDTAVYYCAARTNGWPGMGYWGQGTQVTVSS | high polyreactivity
22 | QVQLVESGGGLVQAGGSLRLSCAASGSTFDHYTMGWYRQAPGKERELVAAINRIGDSTYYADSVKGRCTISRDNAKNTVYLQMTSLKPEDTAVYYCNTVSLSLRFDYWGQGTQVTVSS | high polyreactivity
23 | QVQLVESGGGLVQAGGSLRLSCAASGRTFTSYAMGWYRQAPGKERELVAGISSGGSTNYADSVKGRFTISRDNEKNTVYLQMNSLKPEDTEVYYCAAGFSPGTYDAPTLAFDYWGQGTQVTVSS | low polyreactivity
24 | QVQLVESGGGLVQAGGSLRLSCAASGGTFSWYAMGWYRQAPGKERELVAAITARGGSTYYADSVKGRFTISRDNAKNTVYLQMNSLKPEDTAVYYCNKRTRSLVRYNSGGYSVGYWGQCTQVTVSS | high polyreactivity
25 | QVQLVESGGGLVQAGGSLRLSCAASGRTIYRYDMGWYRQSPGKERKFVAPISWSGGRTYYADSVKGRFTIARDNAKNTVYLQMNSLKPEDTAVYYCAAEYPWSVGYWRYGLDDYWGQGTQVSVSS | high polyreactivity
26 | QVQLVESGGGLVQAGGSLRLSCAASGSIFLTNAMGWYRQAPGKEREMVAAITLSGGITYYADSVKGRFTISRDNAKNNVYLQMNILKPEDTAVYYCAADVPGGIGNGGGYDYWGQGTQVTVSS | low polyreactivity
27 | QVQLVESGGGLVQAGGSLRLSCAASGIIFGFNTMGWYRQAPGKERELVAVITWSGGSTYYADSVKGRFTISRVFAKNTVYLQMNCLNPDDTAVYYCATVRAVEYNYWGQGTQVTVSS | low polyreactivity
28 | QVQLVESGGGLVQAGGSLRLSCSASGIIFDVNALGWYRQSPGKERELVADITYSVGSTSYADSVKGRFTISRDNAKNTVYLQMNSLKPEDTAVYYCAAVYSHSGGEGIKYDYWGQGTQVTVSS | low polyreactivity
29 | QVQLVESGGGLVQAGCSLRLSCAASGLIFYTYAMGWYRQAPGKEREFVAAISRRGGSTYYADSVKGRFTISRDNAKNTVYLQMNSLKPEYTAVYYCNARYTYPRPYEEYYYWGQGTQVTVSS | high polyreactivity
30 | QVQLVESGGGLVQAGGSLRLSCAASGGIFPGNAMGWYRPAPGKERELVATISYSGGSTYYADSVKGRFTISRDNAKNTVYLQMNSLKPEDTAVYYCAARGYKPTRSRRTEYGYWGQGTQVTVSS | high polyreactivity
